Measurements reported in article PMC5738438 (2017).

Columns and labels:
[1] = biological target: H2A/H2B dimer (Xenopus, UniProt P06897 2-123; P02281 1-126)
[2] = biological target: H3/H4 (Xenopus, UniProt P84233 21-136; P62799 17-103)

Kd [1] | Kd [2] | Binder
171 nM | 1110 nM | Npm tail domain (residues 119–195) (domain or fragment) MEEDYSWAEEEDEGEEEEEEEEDPESPPKAVKRPAATKKAGQAKKKKLDKEDESSEEDSPTKKGKGAGRGRKPAAKK
9360 nM | – | DYSWAEEEDE [Npm tail peptide (residues 122–131)]
